Positions count from the first letter of the chain named. In names and notes the source's numbering stands.
Key:
fibrillar Aβ = biological target: T1, fibrillar Aβ (Homo sapiens, UniProt P05067, E693Q); experiment: Solid-phase binding assay, competition against biotinylated sAβPPα
T1 construct: made in house; host or cells: chemical synthesis (solid-phase Fmoc)
Protocol: Aβ peptides or amylin were assembled into fibrils as described above. […] Two μg of each fibrillar Aβ peptide, fibrillar amylin, or ovalbumin in 100 μl of phosphate-buffered saline (PBS) were dried in a 96-well microtiter plate (Corning, Cambridge, Mass.) overnight at 37° C. The wells were rinsed with PBS three times and blocked with 100 μl per well PBS containing 1 mg/ml bovine serum albumin (BSA) for 1 hour at room temperature. After rinsing three times with PBS, known concentrations of biotinylated sAβPPα in PBS containing 0.1 mg/ml BSA were incubated in triplicate (100 μl per well) for 1 hour at room temperature. After rinsing the wells with PBS three times, 100 μl of streptavidin conjugated to horseradish peroxidase in PBS containing 0.1 mg/ml BSA (1:800) was added for 1 hour at room temperature. The binding of biotinylated sAβPPα was detected using the colorimetric substrate o-phenylenediamine dihydrocholride as described by the manufacturer (InVitrogen). Briefly, the substrate was diluted in buffer (0.1 M sodium citrate, pH 4.5) to a final concentration of 1 mg/ml. H202 was added to a final concentration of 0.012% immediately before 100 μl of the substrate was added to each microtiter well. […] The conversion of the colorimetric substrate was measured at a wavelength of 490 nm using a Molecular Dynamics Vmax kinetic plate reader (Sunnyvale, Calif.). […]

[1] = biological target: T2, HCSM cell surface fibrillar Aβ (Homo sapiens, UniProt P05067, E693Q); experiment: Endogenous sAβPPα binding to fibrillar Aβ on HCSM cell surface; format: cell-based; conditions: AβPP-(105-119) at higher concentrations
T2 construct: made in house; host or cells: chemical synthesis (solid-phase Fmoc)

[2] = biological target: T3, fibrillar Dutch-type Aβ-(1-40) (Homo sapiens, UniProt P05067, E693Q); experiment: Solid-phase binding of GST-AβPP-(18-119) proteins to fibrillar Dutch-type Aβ; conditions: for binding to fibrillar Aβ compared with wild-type GST-AβPP-(18-119): alanine substitution mutants
T3 construct: made in house; host or cells: chemical synthesis (solid-phase Fmoc)
Protocol: (§1) Aβ peptides or amylin were assembled into fibrils as described above. […] Two μg of each fibrillar Aβ peptide, fibrillar amylin, or ovalbumin in 100 μl of phosphate-buffered saline (PBS) were dried in a 96-well microtiter plate (Corning, Cambridge, Mass.) overnight at 37° C. The wells were rinsed with PBS three times and blocked with 100 μl per well PBS containing 1 mg/ml bovine serum albumin (BSA) for 1 hour at room temperature. After rinsing three times with PBS, known concentrations of biotinylated sAβPPα in PBS containing 0.1 mg/ml BSA were incubated in triplicate (100 μl per well) for 1 hour at room temperature. After rinsing the wells with PBS three times, 100 μl of streptavidin conjugated to horseradish peroxidase in PBS containing 0.1 mg/ml BSA (1:800) was added for 1 hour at room temperature. The binding of biotinylated sAβPPα was detected using the colorimetric substrate o-phenylenediamine dihydrocholride as described by the manufacturer (InVitrogen). Briefly, the substrate was diluted in buffer (0.1 M sodium citrate, pH 4.5) to a final concentration of 1 mg/ml. H202 was added to a final concentration of 0.012% immediately before 100 μl of the substrate was added to each microtiter well. The solution was developed for =30 min at room temperature and quenched by the addition of 50 μl of 4N H2SO4 to each well. The conversion of the colorimetric substrate was measured at a wavelength of 490 nm using a Molecular Dynamics Vmax kinetic plate reader (Sunnyvale, Calif.).
(§2) Bound secondary antibody was detected using the colorimetric substrate as described above.
However, this small peptide was not nearly as effective as the larger, recombinantly expressed AβPP-(18-119) in binding to fibrillar Aβ. Therefore, alanine-scanning mutagenesis studies of the AβPP-(105-119) sequence within AβPP-(18-119) were performed to further identify key epitopes important in facilitating its binding to fibrillar Aβ. Alanine residues were introduced from Cys^105 through Cys^117 of AβPP-(18-119) by site-directed mutagenesis of the AβPP-(18-119) cDNA. Each mutant AβPP-(18-119) cDNA was expressed as a GST fusion protein and purified, and the concentrations were carefully determined by quantitative immunoblotting as described in “Experimental Procedures”.

HCSM cells = experiment: HCSM cell viability (live/dead assay) after Dutch-type Aβ-(1-40); format: cell-based, human; conditions: 25 μM Dutch-type Aβ-(1-40), 1 μM protein, 6 days at 37° C.
From the text: Primary cultures of HCSM cells were established and characterized. Two lines of HCSM cells were used in these studies. One was derived from a AD patient and the other was derived from a person control. All HCSM cells were used between passages 4-7 and maintained in 24-well tissue culture dishes with Dulbecco's […] containing 10% fetal bovine serum (Gemini Bio-Products, Calabasas, Calif.), non-essential amino acids, and antibiotics (Invitrogen). For experiments, near-confluent cultures of HCSM cells were placed in serum-free medium containing 0.1% BSA, non-essential amino acids, and antibiotics overnight prior to treatment. Freshly solubilized Dutch-type Aβ-(1-40) at a final concentration of 25 μM was added to the cultures in serum-free medium and incubated at 37° C. for 6 days. Cells were routinely viewed and photographed using an Olympus IX70 phase-contrast microscope. Cell viability was quantified using a fluorescent live/dead cell assay following the manufacturer's protocol (Molecular Probes, Eugene, Oreg.). The number of live and dead cells were counted from several fields (n=4) from at least three separate wells for each experiment.
Incubation of HCSM cells with pathogenic Dutch-type Aβ-(1-40) leads to cell death. […]

[3] = biological target: T4, fibrillar wild-type Aβ-(1-42) (Homo sapiens, UniProt P05067); experiment: Solid-phase binding of GST-AβPP-(18-119) proteins to fibrillar wild-type Aβ-(1-42)
T4 construct: made in house; host or cells: chemical synthesis (solid-phase Fmoc)
Protocol: as §1, with “H202 was added to a final concentration of 0.012% immediately before 100 μl of the substrate was added to each microtiter well. The solution was developed for =30 min at room temperature and quenched by the addition of 50 μl of 4N H2SO4 to each well.” left out
as §2

fibrillar amylin peptide = biological target: T5, fibrillar amylin peptide (Homo sapiens, UniProt P10997); experiment: Solid-phase binding of GST-AβPP-(18-119) proteins to fibrillar amylin
T5 construct: Amylin peptide was obtained from Bachem (San Carlos, Calif.); purchased Bachem (San Carlos, Calif.)
T5 sequence (P10997 34-70 limits assumed): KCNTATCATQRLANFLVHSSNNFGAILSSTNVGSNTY
Protocol: as §1, with “H202 was added to a final concentration of 0.012% immediately before 100 μl of the substrate was added to each microtiter well. The solution was developed for =30 min at room temperature and quenched by the addition of 50 μl of 4N H2SO4 to each well.” left out
as §2

Aβ = experiment: Recombinant MBP regions tested for ability to bind Aβ and inhibit fibrillogenesis; format: binding; conditions: Aβ form not stated
Protocol: (§3) Using recombinant methodology to express and purify regions of the 18.5 kDa human MBP protein and test their abilities to bind Aβ and inhibit fibrillogenesis, cDNAs were prepared for the following regions of MBP shown in FIG. 3. The cDNAs for MBP fragments were cloned into pTYB11 plasmids containing an ampr gene and transformed into competent E. coli BL21 DE3 cells. Expression of cDNAs in this vector results in a fusion protein containing a chitin binding domain (CBD) as well as a self-cleavable intein protein from S. cerevisiae. CBD-Intein-MBP fusion proteins were captured on chitin beads from the resulting cell lysates. MBP protein fragments were eluted by inducing the cleavage between the C-terminus of the intein and the N-terminus of MBP by exposure to dithiothreitol. […] MBP was further purified by cation exchange chromatography on CM52 resin, resulting in a >95% pure protein preparations. Each of the four MBP fragments were tested for binding to Dutch/Iowa Aβ40 and wild-type Aβ42 by surface plasmon resonance (FIG. 4).
Such a motif, KRGX1X2X3X4X5X6HP (SEQ ID NO:1), was found in MBP 33-64 and in AβPP 54-64. Specifically, the motif in MBP spans residues 54-64. […]

[4] = biological target: Dutch/Iowa CAA mutant Aβ40 (Aβ40DI) (Homo sapiens, UniProt P05067, D694N/E693Q); experiment: Surface plasmon resonance binding to immobilized Dutch/Iowa Aβ40
Protocol: All runs were performed on a Biacore 2000 instrument using 10 mM HEPES (pH 7.4), 150 mM NaCl, 3 mM EDTA, and 0.005% (v/v) Tween 20 as running buffer and diluent. Streptavidiri was conjugated to the surface of three flow cells of a CM5 chip at 10 μl/min using amine coupling chemistry to a final average response level of 1890.2 response units. N-terminally biotinylated Aβ peptides were resuspended in Me2SO to 2.5 mM and serially diluted to 13 nM immediately before application. Biotinylated Aβ40WT and Aβ40DI were bound to individual flow cells at 10 μl/min to achieve an average relative response level of 157.1 response units, leaving flow cell 1 as reference. […] The resultant Rmax of these surfaces was ˜700 response units with MBP as analyte. Purified MBP was passed over all four flow cells at 5, 10, 25, 50, and 100 nM at a flow rate of 30 μl/min for kinetic measurements. […] Surfaces were regenerated with 0.2 M glycine (pH 2.0) and 150 mM NaCl between runs. The resulting sensorgrams were analyzed by BIAanalysis software. Triplicate concentration series were used for each surface.
as §3

Aβ40DI = Aβ40DI (Homo sapiens, UniProt P05067, D694N/E693Q); experiment: Thioflavin T fluorescence assay of Aβ40DI fibril formation; format: biochemical; conditions: 12.5 μM Aβ40DI, 1.56 μM protein, PBS, 37° C.
Protocol: FIG. 16 Thioflavin T analysis of inhibition of CAA mutant Aβ fibril formation by MBP. Aβ40DI at a concentration of 12.5 μM in PBS in the absence (□) or presence of 1.56 μM MBP(□) or bovine a-lactalbumin (Lalb; □) as a control. At specific time points, aliquots were collected from each sample and analyzed by thioflavin T binding and fluorescence to determine fibrillar assembly. Data represent the means±S.D. of triplicate samples. A.U., arbitrary units.
The Aβ B binding properties of the exemplary fragments of MBP described herein were determined in a thioflavin T fluorescence assay as follows: Lyophilized Aβ peptides were first resuspended with Me2SO to 2.5 mM, diluted to 12.5 μM in PBS, and then incubated at 37° C. with rocking either alone or with 1.56 μM MBP or bovine α-lactalbumin. Control samples containing 0.5% Me2SO and 1.56 μM MBP or lactalbumin in PBS were also included. At each time point, 100 μl samples of each reaction were placed in a 96-well microplate in triplicate, and 5 μl of 100 µM thioflavin T was added. The plate was mixed and incubated at 22° C. in the dark for 10 min. Fluorescence was measured at 490 nm with an excitation wavelength of 446 nm in a SpectraMax spectrofluorometer (Molecular Devices, Sunnyvale, Calif.) using SoftMax Pro control software. It is apparent that the method enables persons of skill in the art to determine the binding properties of MBP, variants thereof, and fragments thereof for any Aβ-peptide, including mutants thereof.

AβPP-(102-116): synthesized overlapping 15-mer peptide of AβPP residues 102-116 (RKQCKTHPHFVIPYR)
competing activity of overlapping 15-mer peptides (fibrillar Aβ; data not shown): approximately half that of AβPP-(105-119)

AβPP-(105-119): synthesized 15 amino acid peptide spanning residues 105-119 of AβPP (CKTHPHFVIPYRCLV)
competition of biotinylated sAβPPα binding to fibrillar Aβ (fibrillar Aβ; 1 mM peptide): ≈ 80% | inhibition of endogenous sAβPPα binding to HCSM cell surface fibrillar Aβ [1]: partially diminish

C117A mutant GST-AβPP-(18-119): GST-AβPP-(18-119) with alanine substitution at Cys117
binding to fibrillar Aβ compared with wild-type GST-AβPP-(18-119) [2]: markedly diminished binding | binding to fibrillar Aβ compared with wild-type GST-AβPP-(18-119) ([2]; listed as C117A): substantially affects

F111A
binding to fibrillar Aβ compared with wild-type GST-AβPP-(18-119) [2]: little or no effect

GST-AβPP-(18-119): glutathione S-transferase fusion protein of AβPP residues 18-119, wild-type
Aβ-induced HCSM cell death (HCSM cells): < 10% | inhibition of endogenous sAβPPα binding to HCSM cell surface fibrillar Aβ [1]: completely inhibited

H110A mutant GST-AβPP-(18-119): GST-AβPP-(18-119) with alanine substitution at His110
fibrillar Aβ binding compared with wild-type GST-AβPP-(18-119) [2]: < 10% | binding to fibrillar Aβ compared with wild-type GST-AβPP-(18-119) ([2]; listed as H110A): markedly decreased binding | binding to fibrillar Aβ compared with wild-type GST-AβPP-(18-119) ([2]; listed as His^110): highly diminished | prevention of Aβ-induced HCSM cell death (HCSM cells): incapable of preventing the cytotoxic effects | binding to fibrillar wild-type Aβ-(1-42) compared with wild-type GST-AβPP-(18-119) [3]: considerably reduced binding | binding to fibrillar amylin peptide compared with wild-type GST-AβPP-(18-119) (fibrillar amylin peptide): considerably reduced binding

I113A: GST-AβPP-(18-119) with alanine substitution at Ile113
binding to fibrillar Aβ compared with wild-type GST-AβPP-(18-119) [2]: markedly decreased binding | binding to fibrillar Aβ compared with wild-type GST-AβPP-(18-119) ([2]; listed as Ile^113): highly diminished | binding to fibrillar wild-type Aβ-(1-42) compared with wild-type GST-AβPP-(18-119) [3]: considerably reduced binding | binding to fibrillar amylin peptide compared with wild-type GST-AβPP-(18-119) (fibrillar amylin peptide): considerably reduced binding

MBP 50-64: MBP residues 50-64, RGAPKRGSGKDSHHP (SEQ ID NO: 51)
abilities to bind Aβ and inhibit fibrillogenesis (Aβ): carries all the binding activity

P109A
binding to fibrillar Aβ compared with wild-type GST-AβPP-(18-119) [2]: little or no effect

B1: MBP1 ΔKRG: MBP1 mutant with alanine substitutions in the KRG region (residues 54-56) (protein)
chain: MASQKRPSQRHGSKYLATASTMDHARHGFLRPHRDTGILDSIGRFFGGDRGAPAAASGKDSHHP
binding to Dutch/Iowa Aβ40 (Aβ40DI) by surface plasmon resonance [4]: do not bind | inhibition of Aβ40DI fibril assembly (thioflavin T) (Aβ40DI): lack fibril inhibition

B2: MBP1 S57A (protein)
chain: B1 chain with A54K, A55R, A56G, S57A
binding to Dutch/Iowa Aβ40 (Aβ40DI) by surface plasmon resonance [4]: does bind

B3: MBP1 ΔHP: MBP1 mutant with alanine substitutions at HP (residues 63-64) (protein)
chain: B1 chain with A54K, A55R, A56G, H63A, P64A
binding to Dutch/Iowa Aβ40 (Aβ40DI) by surface plasmon resonance [4]: do not bind | inhibition of Aβ40DI fibril assembly (thioflavin T) (Aβ40DI): lack fibril inhibition

From patent US9217013B2, “Treatment of amyloidoses using myelin basic protein and fragments thereof” (The Research Foundation for the State University of New York, priority 2008, dated 2015)
